Biological target: po2f1_human POU2F1 (UniProt P14859)
UniProt P14859, sequence (P14859 whole entry): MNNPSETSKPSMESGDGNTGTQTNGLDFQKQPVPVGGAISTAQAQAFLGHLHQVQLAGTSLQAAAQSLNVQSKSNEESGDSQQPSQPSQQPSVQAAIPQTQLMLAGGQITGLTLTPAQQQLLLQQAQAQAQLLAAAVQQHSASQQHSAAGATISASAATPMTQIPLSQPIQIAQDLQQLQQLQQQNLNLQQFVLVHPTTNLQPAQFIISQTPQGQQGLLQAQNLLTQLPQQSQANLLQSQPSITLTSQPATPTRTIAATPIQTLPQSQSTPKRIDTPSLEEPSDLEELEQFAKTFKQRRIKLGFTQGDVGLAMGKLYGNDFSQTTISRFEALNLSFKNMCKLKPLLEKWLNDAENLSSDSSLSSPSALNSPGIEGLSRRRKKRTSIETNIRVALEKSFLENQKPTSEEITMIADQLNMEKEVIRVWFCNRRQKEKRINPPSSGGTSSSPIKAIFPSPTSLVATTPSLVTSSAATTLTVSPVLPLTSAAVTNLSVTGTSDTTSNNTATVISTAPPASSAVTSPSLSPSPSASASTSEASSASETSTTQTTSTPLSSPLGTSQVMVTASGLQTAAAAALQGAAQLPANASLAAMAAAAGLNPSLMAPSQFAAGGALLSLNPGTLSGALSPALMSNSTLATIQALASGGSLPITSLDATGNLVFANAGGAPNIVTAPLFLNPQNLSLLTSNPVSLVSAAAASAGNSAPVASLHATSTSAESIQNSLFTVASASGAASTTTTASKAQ

Effect of a mutation on the interaction, decreasing interaction:
Host cell factor 1 (Homo sapiens), P51610 P134S
Host cell factor 1 (Homo sapiens), P51610 R344A;K345A
Host cell factor 1 (Homo sapiens), P51610 E289A;W290A;K291A

Biological target: creb3_human CREB3 (UniProt O43889)
UniProt O43889, sequence (O43889 whole entry): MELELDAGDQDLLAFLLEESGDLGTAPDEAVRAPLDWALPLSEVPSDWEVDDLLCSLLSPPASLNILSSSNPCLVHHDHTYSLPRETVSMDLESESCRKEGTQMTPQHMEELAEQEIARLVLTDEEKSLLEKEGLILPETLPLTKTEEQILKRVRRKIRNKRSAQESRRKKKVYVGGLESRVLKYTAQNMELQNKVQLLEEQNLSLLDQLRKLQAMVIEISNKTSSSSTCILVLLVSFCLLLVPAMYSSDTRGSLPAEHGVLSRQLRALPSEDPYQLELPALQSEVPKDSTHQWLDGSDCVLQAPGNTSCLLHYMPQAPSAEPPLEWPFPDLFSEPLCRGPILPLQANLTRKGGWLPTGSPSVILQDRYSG

Effect of a mutation on the interaction, decreasing interaction:
Host cell factor 1 (Homo sapiens), P51610 R228D
Host cell factor 1 (Homo sapiens), P51610 P319S
Host cell factor 1 (Homo sapiens), P51610 P79S
Host cell factor 1 (Homo sapiens), P51610 S338A
Host cell factor 1 (Homo sapiens), P51610 P134S
Host cell factor 1 (Homo sapiens), P51610 P197S
Host cell factor 1 (Homo sapiens), P51610 E289A;W290A;K291A
Host cell factor 1 (Homo sapiens), P51610 P30S
Host cell factor 1 (Homo sapiens), P51610 C82D

From IntAct's records for PubMed 10629049
